From IntAct's records for PubMed 31515488

B1: Splicing factor 45 (Homo sapiens), Q96I25 (parent)
chain: MSLYDDLGVETSDSKTEGWSKNFKLLQSQLQVKKAALTQAKSQRTKQSTVLAPVIDLKRGGSSDDRQIVDTPPHVAAGLKDPVPSGFSAGEVLIPLADEYDPMFPNDYEKVVKRQREERQRQRELERQKEIEEREKRRKDRHEASGFARRPDPDSDEDEDYERERRKRSMGGAAIAPPTSLVEKDKELPRDFPYEEDSRPRSQSSKAAIPPPVYEEQDRPRSPTGPSNSFLANMGGTVAHKIMQKYGFREGQGLGKHEQGLSTALSVEKTSKRGGKIIVGDATEKDASKKSDSNPLTEILKCPTKVVLLRNMVGAGEVDEDLEVETKEECEKYGKVGKCVIFEIPGAPDDEAVRIFLEFERVESAIKAVVDLNGRYFGGRVVKACFYNLDKFRVLDLAEQV
partner: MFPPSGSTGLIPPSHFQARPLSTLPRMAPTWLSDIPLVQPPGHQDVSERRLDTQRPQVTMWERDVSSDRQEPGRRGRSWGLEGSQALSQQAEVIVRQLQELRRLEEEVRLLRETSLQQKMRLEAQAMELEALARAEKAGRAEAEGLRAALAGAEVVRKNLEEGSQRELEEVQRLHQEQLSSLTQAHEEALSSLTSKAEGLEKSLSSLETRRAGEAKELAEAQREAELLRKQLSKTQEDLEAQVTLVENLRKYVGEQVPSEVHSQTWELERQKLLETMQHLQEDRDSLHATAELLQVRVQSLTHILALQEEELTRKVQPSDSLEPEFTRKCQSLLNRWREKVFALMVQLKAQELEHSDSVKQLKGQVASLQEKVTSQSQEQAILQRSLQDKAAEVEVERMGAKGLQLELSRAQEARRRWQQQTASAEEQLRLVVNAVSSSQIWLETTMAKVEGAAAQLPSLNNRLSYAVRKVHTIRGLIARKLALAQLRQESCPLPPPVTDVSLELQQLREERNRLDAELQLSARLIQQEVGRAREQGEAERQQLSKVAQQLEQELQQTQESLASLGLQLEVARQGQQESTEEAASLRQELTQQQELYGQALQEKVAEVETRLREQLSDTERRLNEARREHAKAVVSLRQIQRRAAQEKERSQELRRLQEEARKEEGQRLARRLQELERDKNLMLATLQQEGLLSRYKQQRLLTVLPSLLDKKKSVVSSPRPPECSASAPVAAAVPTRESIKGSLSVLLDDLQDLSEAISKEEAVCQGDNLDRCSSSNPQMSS
B2: Zinc finger protein RFP (Homo sapiens), P14373 (parent)
chain: MASGSVAECLQQETTCPVCLQYFAEPMMLDCGHNICCACLARCWGTAETNVSCPQCRETFPQRHMRPNRHLANVTQLVKQLRTERPSGPGGEMGVCEKHREPLKLYCEEDQMPICVVCDRSREHRGHSVLPLEEAVEGFKEQIQNQLDHLKRVKDLKKRRRAQGEQARAELLSLTQMEREKIVWEFEQLYHSLKEHEYRLLARLEELDLAIYNSINGAITQFSCNISHLSSLIAQLEEKQQQPTRELLQDIGDTLSRAERIRIPEPWITPPDLQEKIHIFAQKCLFLTESLKQFTEKMQSDMEKIQELREAQLYSVDVTLDPDTAYPSLILSDNLRQVRYSYLQQDLPDNPERFNLFPCVLGSPCFIAGRHYWEVEVGDKAKWTIGVCEDSVCRKGGVTSAPQNGFWAVSLWYGKEYWALTSPMTALPLRTPLQRVGIFLDYDAGEVSFYNVTERCHTFTFSHATFCGPVRPYFSLSYSGGKSAAPLIICPMSGIDGFSGHVGNHGHSMETSP
partner: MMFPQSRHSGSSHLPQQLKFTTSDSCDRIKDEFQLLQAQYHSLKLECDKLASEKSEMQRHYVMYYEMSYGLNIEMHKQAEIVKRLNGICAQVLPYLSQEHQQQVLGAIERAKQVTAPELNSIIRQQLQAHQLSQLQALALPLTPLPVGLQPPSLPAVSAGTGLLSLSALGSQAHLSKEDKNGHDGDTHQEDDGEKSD
B3: Nucleoside diphosphate kinase homolog 5 (Homo sapiens), P56597 (parent)
chain: MEISMPPPQIYVEKTLAIIKPDIVDKEEEIQDIILRSGFTIVQRRKLRLSPEQCSNFYVEKYGKMFFPNLTAYMSSGPLVAMILARHKAISYWLELLGPNNSLVAKETHPDSLRAIYGTDDLRNALHGSNDFAAAEREIRFMFPEVIVEPIPIGQAAKDYLNLHIMPTLLEGLTELCKQKPADPLIWLADWLLKNNPNKPKLCHHPIVEEPY
partner: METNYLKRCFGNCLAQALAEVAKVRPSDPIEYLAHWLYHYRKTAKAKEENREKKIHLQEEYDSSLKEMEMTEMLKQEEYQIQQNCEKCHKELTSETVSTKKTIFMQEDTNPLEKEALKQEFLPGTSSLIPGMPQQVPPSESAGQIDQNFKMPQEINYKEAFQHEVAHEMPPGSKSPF
B4: H/ACA ribonucleoprotein complex subunit 3 (Homo sapiens), Q9NPE3 (parent)
chain: MFLQYYLNEQGDRVYTLKKFDPMGQQTCSAHPARFSPDDKYSRHRITIKKRFKVLMTQQPRPVL
partner: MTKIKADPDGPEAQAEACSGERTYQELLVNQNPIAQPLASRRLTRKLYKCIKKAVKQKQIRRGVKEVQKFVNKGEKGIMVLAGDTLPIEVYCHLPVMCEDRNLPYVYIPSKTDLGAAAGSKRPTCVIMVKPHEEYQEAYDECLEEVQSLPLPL
B5: Cytochrome b-245 chaperone 1 (Homo sapiens), Q9BQA9 (parent)
chain: MYLQVETRTSSRLHLKRAPGIRSWSLLVGILSIGLAAAYYSGDSLGWKLFYVTGCLFVAVQNLEDWEEAIFDKSTGKVVLKTFSLYKKLLTLFRAGHDQVVVLLHDVRDVSVEEEKVRYFGKGYMVVLRLATGFSHPLTQSAVMGHRSDVEAIAKLITSFLELHCLESPTELSQSSDSEAGDPASQS
B6: Microtubule-associated tumor suppressor candidate 2 (Homo sapiens), Q5JR59-3 (parent)
chain: MGHCCCKPYNCLQCLDKTNESALVKEKELSIELANIRDEVAFHTAKCEKLQKEKEELERRFEDEVKRLGWQQQAELQELEERLQLQFEAEMARLQEEHGDQLLSIRCQHQEQVEDLTASHDAALLEMENNHTVAITILQDDHDHKVQELMSTHELEKKELEENFEKLRLSLQDQVDTLTFQSQSLRDRARRFEEALRKNTEEQLEIALAPYQHLEEDMKSLKQVLEMKNQQIHEQEKKILELEKLAEKNIILEEKIQVLQQQNEDLKARIDQNTVVTRQLSEENANLQEYVEKETQEKKRLSRTNEELLWKLQTGDPTSPIKLSPTSPVYRGSSSGPSSPARVSTTPR
partner: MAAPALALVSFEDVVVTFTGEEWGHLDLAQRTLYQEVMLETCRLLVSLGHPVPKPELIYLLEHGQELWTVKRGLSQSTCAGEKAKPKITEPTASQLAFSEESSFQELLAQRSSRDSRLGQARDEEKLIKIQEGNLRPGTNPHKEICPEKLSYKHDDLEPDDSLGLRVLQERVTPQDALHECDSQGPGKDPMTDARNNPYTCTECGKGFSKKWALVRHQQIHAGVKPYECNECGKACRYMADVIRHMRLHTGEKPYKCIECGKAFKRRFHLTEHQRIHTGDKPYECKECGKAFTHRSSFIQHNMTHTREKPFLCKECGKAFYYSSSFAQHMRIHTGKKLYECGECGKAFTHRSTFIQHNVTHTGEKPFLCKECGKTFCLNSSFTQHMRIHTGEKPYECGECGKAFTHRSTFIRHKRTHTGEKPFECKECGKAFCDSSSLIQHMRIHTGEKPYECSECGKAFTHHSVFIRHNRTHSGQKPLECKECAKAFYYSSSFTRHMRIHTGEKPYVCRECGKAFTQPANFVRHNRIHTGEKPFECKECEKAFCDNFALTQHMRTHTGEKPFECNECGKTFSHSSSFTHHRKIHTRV
B7: Protein mab-21-like 3 (Homo sapiens), Q8N8X9 (parent)
chain: MKYLTVGDLEDCLLNKVDLRRQQISQAVEEVQKVVHHLTTNISNQDIRFQAVPYSDTYNENIKVLAPSQFLVTVPIKGLAGYREAREQHWRYYTLQGTRLPCPLRDPEGLQQWLEVEQFMKSLWQWHETDVNIDGDIVPAKVLLVFRKLVENAVRTCHLSGKVSLLGNRSAVWVAVETSAYQVELELVPAVEIPTTWSKKARWPRCLQRWPSQERVECIKSFGFNLLACSNYHWQLSFLRAEQVLLEQLDEDGGCRRKCFQVMRHLKEDIWCPGNRPVITSHHLQTVLFWTCEKYPHFKDWQVFSKAFLRLVRKLHKCVSQHFLKHYFVRNSNLFQCTNPTELDTVAQKLATFLKNPQIGPP
partner: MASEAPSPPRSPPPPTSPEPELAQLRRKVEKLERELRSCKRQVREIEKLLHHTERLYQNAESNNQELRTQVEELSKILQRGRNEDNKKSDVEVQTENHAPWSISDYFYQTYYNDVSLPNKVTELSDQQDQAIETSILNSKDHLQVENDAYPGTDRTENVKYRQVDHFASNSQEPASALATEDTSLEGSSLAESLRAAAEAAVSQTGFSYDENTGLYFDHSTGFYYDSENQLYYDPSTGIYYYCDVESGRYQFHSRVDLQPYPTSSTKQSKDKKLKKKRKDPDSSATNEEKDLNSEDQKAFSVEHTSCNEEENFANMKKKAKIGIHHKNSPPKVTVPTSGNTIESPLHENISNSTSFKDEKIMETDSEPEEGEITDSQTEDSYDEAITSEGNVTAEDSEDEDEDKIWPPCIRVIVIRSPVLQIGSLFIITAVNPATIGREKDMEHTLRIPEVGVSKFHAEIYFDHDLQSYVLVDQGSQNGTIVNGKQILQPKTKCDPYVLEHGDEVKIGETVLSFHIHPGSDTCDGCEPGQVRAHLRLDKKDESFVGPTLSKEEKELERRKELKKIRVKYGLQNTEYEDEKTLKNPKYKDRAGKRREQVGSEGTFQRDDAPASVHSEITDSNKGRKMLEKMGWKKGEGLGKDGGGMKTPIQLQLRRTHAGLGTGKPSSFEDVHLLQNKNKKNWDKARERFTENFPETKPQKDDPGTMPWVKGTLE
B8: E3 ubiquitin-protein ligase SH3RF2 (Homo sapiens), Q8TEC5 (parent)
chain: MDDLTLLDLLECPVCFEKLDVTAKVLPCQHTFCKPCLQRVFKAHKELRCPECRTPVFSNIEALPANLLLVRLLDGVRSGQSSGRGGSFRRPGTMTLQDGRKSRTNPRRLQASPFRLVPNVRIHMDGVPRAKALCNYRGQNPGDLRFNKGDIILLRRQLDENWYQGEINGISGNFPASSVEVIKQLPQPPPLCRALYNFDLRGKDKSENQDCLTFLKDDIITVISRVDENWAEGKLGDKVGIFPILFVEPNLTARHLLEKNKGRQSSRTKNLSLVSSSSRGNTSTLRRGPGSRRKVPGQFSITTALNTLNRMVHSPSGRHMVEISTPVLISSSNPSVITQPMEKADVPSSCVGQVSTYHPAPVSPGHSTAVVSLPGSQQHLSANMFVALHSYSAHGPDELDLQKGEGVRVLGKCQDGWLRGVSLVTGRVGIFPNNYVIPIFRKTSSFPDSRSPGLYTTWTLSTSSVSSQGSISEGDPRQSRPFKSVFVPTAIVNPVRSTAGPGTLGQGSLRKGRSSMRKNGSLQRPLQSGIPTLVVGSLRRSPTMVLRPQQFQFYQPQGIPSSPSAVVVEMGSKPALTGEPALTCISRGSEAWIHSAASSLIMEDKEIPIKSEPLPKPPASAPPSILVKPENSRNGIEKQVKTVRFQNYSPPPTKHYTSHPTSGKPEQPATLKASQPEAASLGPEMTVLFAHRSGCHSGQQTDLRRKSALGKATTLVSTASGTQTVFPSK
partner: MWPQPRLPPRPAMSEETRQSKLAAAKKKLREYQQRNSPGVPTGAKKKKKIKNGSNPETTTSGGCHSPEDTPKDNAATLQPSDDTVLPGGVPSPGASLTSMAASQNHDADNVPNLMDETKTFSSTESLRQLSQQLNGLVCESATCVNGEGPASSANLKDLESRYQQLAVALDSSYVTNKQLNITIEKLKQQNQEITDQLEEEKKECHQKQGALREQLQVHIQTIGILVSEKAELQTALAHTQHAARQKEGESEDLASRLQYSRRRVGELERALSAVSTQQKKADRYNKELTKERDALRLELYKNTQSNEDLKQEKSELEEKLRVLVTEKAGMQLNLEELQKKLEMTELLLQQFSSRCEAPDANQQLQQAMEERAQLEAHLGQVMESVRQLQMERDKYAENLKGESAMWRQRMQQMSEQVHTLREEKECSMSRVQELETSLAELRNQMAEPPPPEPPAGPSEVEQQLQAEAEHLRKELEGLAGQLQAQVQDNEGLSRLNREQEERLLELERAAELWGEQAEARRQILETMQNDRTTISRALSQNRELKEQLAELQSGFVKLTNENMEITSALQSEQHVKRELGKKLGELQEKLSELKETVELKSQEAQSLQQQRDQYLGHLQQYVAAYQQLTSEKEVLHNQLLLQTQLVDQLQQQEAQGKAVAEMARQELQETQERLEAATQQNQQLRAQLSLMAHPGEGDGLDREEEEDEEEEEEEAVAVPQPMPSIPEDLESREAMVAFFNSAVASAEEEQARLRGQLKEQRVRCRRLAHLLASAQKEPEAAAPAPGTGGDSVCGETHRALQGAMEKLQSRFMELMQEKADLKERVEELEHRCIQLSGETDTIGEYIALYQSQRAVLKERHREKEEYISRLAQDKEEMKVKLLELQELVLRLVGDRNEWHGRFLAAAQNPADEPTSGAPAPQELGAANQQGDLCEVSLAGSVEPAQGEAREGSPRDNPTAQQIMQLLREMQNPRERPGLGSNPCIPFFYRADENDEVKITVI

Variants of: B1
Conditions: with cchcr_human CCHCR1, Q8TD31

Variant	effect of a mutation on the interaction
T224I	with no effect

Variants of: B2
Conditions: with tle5_human TLE5, Q08117

Variant	effect of a mutation on the interaction
N355S	with no effect

Variants of: B3
Conditions: with dydc2_human DYDC2, Q96IM9

Variant	effect of a mutation on the interaction
N198D	with no effect
I165M	with no effect
L103F	with no effect
S50N	with no effect

Variants of: B4
Conditions: with nhp2_human NHP2, Q9NX24

Variant	effect of a mutation on the interaction
D12H	with no effect

Variants of: B5
Conditions: with BCL2L13, Q9BXK5
BCL2L13, Q9BXK5, sequence (Q9BXK5 whole entry): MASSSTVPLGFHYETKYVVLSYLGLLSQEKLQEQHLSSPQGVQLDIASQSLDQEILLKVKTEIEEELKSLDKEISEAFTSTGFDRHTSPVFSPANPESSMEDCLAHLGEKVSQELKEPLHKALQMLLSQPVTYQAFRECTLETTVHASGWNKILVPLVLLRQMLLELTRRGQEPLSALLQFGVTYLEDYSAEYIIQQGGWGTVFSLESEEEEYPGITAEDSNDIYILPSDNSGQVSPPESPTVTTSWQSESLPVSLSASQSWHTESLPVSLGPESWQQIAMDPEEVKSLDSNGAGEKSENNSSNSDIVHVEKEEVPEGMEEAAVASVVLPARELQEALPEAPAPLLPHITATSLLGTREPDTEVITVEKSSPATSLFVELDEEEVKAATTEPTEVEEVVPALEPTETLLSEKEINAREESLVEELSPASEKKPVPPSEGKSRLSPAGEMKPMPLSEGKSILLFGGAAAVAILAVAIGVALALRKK

Variant	effect of a mutation on the interaction
R129W	with no effect

Variants of: B6
Conditions: with zn599_human ZNF599, Q96NL3

Variant	effect of a mutation on the interaction
A89V	with no effect

Variants of: B7
Conditions: with aggf1_human AGGF1, Q8N302

Variant	effect of a mutation on the interaction
T338A	with no effect

Variants of: B8
Conditions: with goga2_human GOLGA2, Q08379

Variant	effect of a mutation on the interaction
V687I	with no effect
